B1: murine AA amyloid (AA fibrils, amyloid enhancing factor extract or tissue deposits) (protein, mouse, UniProt P05367 20-94, looked up)
chain: GFFSFIGEAFQGAGDMWRAYTDMKEAGWKDGDKYFHARGNYDAAQRGPGGVWAAEKISDARESFQEFFGRGHEDT
B2: human AA amyloid (renal AA amyloid extract or tissue deposits) (protein, UniProt P0DJI8 19-94, looked up)
chain: RSFFSFLGEAFDGARDMWRAYSDMREANYIGSDKYFHARGNYDAAKRGPGGAWAAEVITDARENIQRFFGHGAEDS

Key:
[1] = target: mAbs 2A4, 8G9 and 7D8, told of as a group; test: competition ELISA, value told for the three mAbs together
[2] = target: mAbs 2A4, 8G9 and 7D8, told of as a group; test: competition ELISA, told for the three mAbs together

Binder | IC50 [1] | fold greater IC50 than murine AEF in solution [2]
B1 | 20 µg/mL | –
B2 | – | 6 to 44 fold
